The target in the series is DHX9 helicase (human, UniProt Q08211 1-1270). Put plainly: EMSA; 5 mM AMP-PNP, 10 mM Mg2+; 100 nM DHX9, 100 nM DNA; EMSA: 20 mM Tris-HCl pH 7.5, 50 mM NaCl, 1 mM DTT, 1 mM EDTA, 10 mM MgCl2, 5% glycerol, 5 mM AMP-PNP, 30 C 30 min; MBN assay: 10 mM Tris-HCl pH 7.5, 5 mM DTT, 100 ug/ml BSA, 5 mM MgCl2, 5 mM ATP or AMP-PNP, 10% glycerol, 35 C. Particulars: protein: recombinant, tags: His, label: 5'-32P.
Chain of DHX9 helicase (Q08211 whole entry): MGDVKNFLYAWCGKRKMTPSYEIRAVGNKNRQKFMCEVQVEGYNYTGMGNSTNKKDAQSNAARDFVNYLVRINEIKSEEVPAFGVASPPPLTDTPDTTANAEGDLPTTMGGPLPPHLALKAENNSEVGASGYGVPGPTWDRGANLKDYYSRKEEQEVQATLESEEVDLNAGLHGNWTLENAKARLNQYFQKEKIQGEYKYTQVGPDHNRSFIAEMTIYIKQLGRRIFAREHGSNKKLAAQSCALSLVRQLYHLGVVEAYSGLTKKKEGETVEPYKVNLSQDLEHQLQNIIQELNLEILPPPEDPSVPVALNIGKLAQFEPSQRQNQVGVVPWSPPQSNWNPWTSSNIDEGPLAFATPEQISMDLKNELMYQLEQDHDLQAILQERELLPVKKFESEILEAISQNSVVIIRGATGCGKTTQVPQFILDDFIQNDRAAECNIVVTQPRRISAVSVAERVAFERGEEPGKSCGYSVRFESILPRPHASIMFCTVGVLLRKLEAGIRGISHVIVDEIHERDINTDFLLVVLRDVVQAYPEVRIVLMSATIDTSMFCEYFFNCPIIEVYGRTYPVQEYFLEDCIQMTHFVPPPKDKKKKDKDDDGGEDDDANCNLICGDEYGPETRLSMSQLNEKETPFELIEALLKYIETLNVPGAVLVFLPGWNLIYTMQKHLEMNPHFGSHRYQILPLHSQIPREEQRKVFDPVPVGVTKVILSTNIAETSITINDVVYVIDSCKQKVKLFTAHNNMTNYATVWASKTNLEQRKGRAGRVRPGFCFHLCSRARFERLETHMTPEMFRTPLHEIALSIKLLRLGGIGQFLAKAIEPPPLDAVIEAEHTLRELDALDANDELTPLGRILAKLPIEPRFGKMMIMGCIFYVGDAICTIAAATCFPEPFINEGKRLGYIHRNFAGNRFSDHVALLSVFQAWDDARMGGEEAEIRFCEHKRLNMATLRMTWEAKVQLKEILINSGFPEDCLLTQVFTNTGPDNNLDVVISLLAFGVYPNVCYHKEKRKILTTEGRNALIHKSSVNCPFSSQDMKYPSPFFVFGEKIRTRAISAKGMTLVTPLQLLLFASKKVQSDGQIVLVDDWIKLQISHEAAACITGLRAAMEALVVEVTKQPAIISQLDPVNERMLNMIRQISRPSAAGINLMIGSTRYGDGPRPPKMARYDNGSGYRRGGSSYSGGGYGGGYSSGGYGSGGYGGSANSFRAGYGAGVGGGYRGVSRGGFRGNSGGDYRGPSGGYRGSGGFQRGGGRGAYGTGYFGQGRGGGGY

In the case of CCCCTCCCTTTTTGGGAGGGGCGCTTATGGGGAGGGCAGTCGAGCG (structured_DNA) [c-MYC-related intramolecular triplex with 3' overhang (H-DNA)], the binding result (intramolecular triplex with 3' overhang, single strand, pre-annealed with 10 mM Mg2+) is on record as “binds”.

B1: duplex DNA control (dsDNA)
DNA 1: CTTGAGCTTGAGCTCAAGCTCAAG
DNA 2: CTTGAGCTTGAGCTCAAGCTCAAG
Consider B1, for which the binding result (self-complementary, 2 copies of one strand, blunt, hairpin may also form) is on record as “no binding”.

The values above are taken from PMC3905860, “DHX9 helicase is involved in preventing genomic instability induced by alternatively structured DNA in human cells”.
